# Test results taken from PMC9482650, “Quantitative fragmentomics allow affinity mapping of interactomes” (Nature Communications, 2022).
# T1: SNTB1, Q13884
# T1 sequence (Q13884 107-205, limits assumed, looked up): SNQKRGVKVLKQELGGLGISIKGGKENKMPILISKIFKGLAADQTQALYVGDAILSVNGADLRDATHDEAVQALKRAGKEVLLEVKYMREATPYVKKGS
# T2: MPDZ_5, O75970
# T2 sequence (O75970 695-796, limits assumed, looked up): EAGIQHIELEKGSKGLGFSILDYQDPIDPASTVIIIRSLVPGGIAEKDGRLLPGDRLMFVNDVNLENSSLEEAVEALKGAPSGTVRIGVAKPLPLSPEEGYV
# T3: LIN7C, Q9NUP9
# T3 sequence (Q9NUP9 88-185, limits assumed, looked up): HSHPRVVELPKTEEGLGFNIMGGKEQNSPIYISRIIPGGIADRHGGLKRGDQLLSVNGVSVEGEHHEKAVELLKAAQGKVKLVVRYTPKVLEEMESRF
# T4: GRIP1_7, Q9Y3R0
# T4 sequence (Q9Y3R0 999-1096, limits assumed, looked up): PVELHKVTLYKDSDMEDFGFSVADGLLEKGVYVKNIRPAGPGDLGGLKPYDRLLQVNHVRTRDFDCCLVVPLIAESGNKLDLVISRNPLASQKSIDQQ
# T5: APBA2_1, Q99767
# T5 sequence (Q99767 563-664, limits assumed, looked up): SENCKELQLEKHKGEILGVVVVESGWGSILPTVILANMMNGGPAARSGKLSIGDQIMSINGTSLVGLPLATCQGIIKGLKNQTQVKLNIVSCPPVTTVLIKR
# T6: SHANK1, Q9Y566
# T6 sequence (Q9Y566 658-767, limits assumed, looked up): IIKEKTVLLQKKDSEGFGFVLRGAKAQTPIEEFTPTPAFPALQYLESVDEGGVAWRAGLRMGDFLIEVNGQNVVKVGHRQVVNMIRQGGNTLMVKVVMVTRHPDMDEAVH
# T7: FRMPD1, Q5SYB0
# T7 sequence (Q5SYB0 52-145, limits assumed, looked up): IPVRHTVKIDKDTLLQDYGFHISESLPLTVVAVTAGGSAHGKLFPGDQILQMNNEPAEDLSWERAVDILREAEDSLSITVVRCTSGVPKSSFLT
# T8: PDZD7_3, Q9H5P4
# T8 sequence (Q9H5P4 857-944, limits assumed, looked up): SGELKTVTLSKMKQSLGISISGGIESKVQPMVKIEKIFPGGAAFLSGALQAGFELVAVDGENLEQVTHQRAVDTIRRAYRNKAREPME
# T9: DVL3, Q92997
# T9 sequence (Q92997 244-331, limits assumed, looked up): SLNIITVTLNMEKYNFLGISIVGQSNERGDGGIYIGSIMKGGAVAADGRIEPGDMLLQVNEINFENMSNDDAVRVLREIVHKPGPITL
# T10: APBA1_2, Q02410
# T10 sequence (Q02410 742-832, limits assumed, looked up): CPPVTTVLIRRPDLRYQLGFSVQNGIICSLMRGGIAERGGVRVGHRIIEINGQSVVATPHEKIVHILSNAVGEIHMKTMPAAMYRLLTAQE
# T11: DLG3_3, Q92796
# T11 sequence (Q92796 374-475, limits assumed, looked up): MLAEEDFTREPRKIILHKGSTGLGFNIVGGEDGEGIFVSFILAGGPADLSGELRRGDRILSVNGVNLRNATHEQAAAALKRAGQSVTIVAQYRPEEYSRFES
# Columns and labels:
# Experiment in all cases: holdup assay
# Set-up in all cases: key: below the threshold = too weak to quantify, mostly under pKd 3.1 to 4
# NOS1, P29475 = biological target: NOS1, P29475
# MAGI2_6, Q86UL8 = biological target: MAGI2_6, Q86UL8
# SNTB1, Q13884 = biological target: T1, SNTB1, Q13884
# FRMPD2_2, Q68DX3 = biological target: FRMPD2_2, Q68DX3
# MPDZ_5, O75970 = biological target: T2, MPDZ_5, O75970
# LIN7C, Q9NUP9 = biological target: T3, LIN7C, Q9NUP9
# CASK, O14936 = biological target: CASK, O14936
# GRIP1_7, Q9Y3R0 = biological target: T4, GRIP1_7, Q9Y3R0
# GORASP1, Q9BQQ3 = biological target: GORASP1, Q9BQQ3
# APBA2_1, Q99767 = biological target: T5, APBA2_1, Q99767
# SHANK1, Q9Y566 = biological target: T6, SHANK1, Q9Y566
# FRMPD2_3, Q68DX3 = biological target: FRMPD2_3, Q68DX3
# FRMPD2_1, Q68DX3 = biological target: FRMPD2_1, Q68DX3
# FRMPD1, Q5SYB0 = biological target: T7, FRMPD1, Q5SYB0
# PDZD7_3, Q9H5P4 = biological target: T8, PDZD7_3, Q9H5P4
# GOPC, Q9HD26 = biological target: GOPC, Q9HD26
# DLG4_3, P78352 = biological target: DLG4_3, P78352
# DLG1_3, Q12959 = biological target: DLG1_3, Q12959
# MAGI2_4, Q86UL8 = biological target: MAGI2_4, Q86UL8
# DVL3, Q92997 = biological target: T9, DVL3, Q92997
# LAP2, Q96RT1 = biological target: LAP2, Q96RT1
# Inadl_5, Q8NI35 = biological target: Inadl_5, Q8NI35
# SCRIB_2, Q14160 = biological target: SCRIB_2, Q14160
# APBA1_2, Q02410 = biological target: T10, APBA1_2, Q02410
# LNX1_3, Q8TBB1 = biological target: LNX1_3, Q8TBB1
# DLG3_3, Q92796 = biological target: T11, DLG3_3, Q92796
# Inadl_1, Q8NI35 = biological target: Inadl_1, Q8NI35
# [1] = plain residues with an end cap or a label only (N-terminal biotin on a linker: ttds)
# [2] = plain residues with an end cap or a label only (N-terminal biotin on a linker: ado-ado)
# [3] = plain residues with an end cap or a label only (N-terminal biotin on a linker: ahx)
# Sequence of SCRIB_2, Q14160 (Q14160 857-960): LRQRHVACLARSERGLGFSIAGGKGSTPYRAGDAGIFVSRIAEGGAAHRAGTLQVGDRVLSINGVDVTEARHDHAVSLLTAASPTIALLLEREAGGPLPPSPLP
# Sequence of MAGI2_6, Q86UL8 (Q86UL8 1141-1229): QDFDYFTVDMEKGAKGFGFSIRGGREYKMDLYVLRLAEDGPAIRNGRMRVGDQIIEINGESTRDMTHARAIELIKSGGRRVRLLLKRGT
# Sequence of DLG1_3, Q12959 (Q12959 457-571): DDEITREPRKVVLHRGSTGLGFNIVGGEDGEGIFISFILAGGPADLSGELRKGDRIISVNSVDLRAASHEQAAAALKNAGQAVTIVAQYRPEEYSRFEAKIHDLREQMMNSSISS
# Sequence of CASK, O14936 (O14936 487-570): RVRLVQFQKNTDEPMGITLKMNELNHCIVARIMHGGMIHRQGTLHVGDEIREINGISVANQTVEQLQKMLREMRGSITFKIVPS
# Sequence of FRMPD2_3, Q68DX3 (Q68DX3 1073-1166): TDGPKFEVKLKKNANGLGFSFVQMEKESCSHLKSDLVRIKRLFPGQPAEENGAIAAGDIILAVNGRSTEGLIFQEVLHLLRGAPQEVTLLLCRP
# Sequence of DLG4_3, P78352 (P78352 306-403): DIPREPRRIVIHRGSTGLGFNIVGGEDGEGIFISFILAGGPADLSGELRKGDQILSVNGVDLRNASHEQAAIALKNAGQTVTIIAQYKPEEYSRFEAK
# Sequence of Inadl_1, Q8NI35 (Q8NI35 113-229): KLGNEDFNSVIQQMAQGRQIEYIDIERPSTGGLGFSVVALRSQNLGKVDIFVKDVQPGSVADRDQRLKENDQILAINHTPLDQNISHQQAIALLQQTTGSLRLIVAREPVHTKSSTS
# Sequence of GORASP1, Q9BQQ3 (Q9BQQ3 1-208): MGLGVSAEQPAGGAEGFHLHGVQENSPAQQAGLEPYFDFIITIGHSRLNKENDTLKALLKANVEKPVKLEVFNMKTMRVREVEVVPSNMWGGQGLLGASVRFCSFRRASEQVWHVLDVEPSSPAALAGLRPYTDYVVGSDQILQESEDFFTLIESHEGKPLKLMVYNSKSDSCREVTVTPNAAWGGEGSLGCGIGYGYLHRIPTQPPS
# Sequence of FRMPD2_2, Q68DX3 (Q68DX3 944-1038): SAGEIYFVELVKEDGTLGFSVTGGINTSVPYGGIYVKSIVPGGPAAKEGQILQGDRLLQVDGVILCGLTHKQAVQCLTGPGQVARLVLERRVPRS
# Sequence of LNX1_3, Q8TBB1 (Q8TBB1 500-596): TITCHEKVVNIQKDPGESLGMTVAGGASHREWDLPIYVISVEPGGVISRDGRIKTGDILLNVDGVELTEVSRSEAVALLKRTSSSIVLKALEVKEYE
# Sequence of Inadl_5, Q8NI35 (Q8NI35 673-780): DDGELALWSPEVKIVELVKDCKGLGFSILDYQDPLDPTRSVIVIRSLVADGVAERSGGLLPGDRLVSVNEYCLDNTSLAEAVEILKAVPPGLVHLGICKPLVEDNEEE
# Sequence of NOS1, P29475 (P29475 9-101): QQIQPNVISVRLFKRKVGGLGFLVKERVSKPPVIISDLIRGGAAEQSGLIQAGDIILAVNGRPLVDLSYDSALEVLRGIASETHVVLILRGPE
# Sequence of FRMPD2_1, Q68DX3 (Q68DX3 770-861): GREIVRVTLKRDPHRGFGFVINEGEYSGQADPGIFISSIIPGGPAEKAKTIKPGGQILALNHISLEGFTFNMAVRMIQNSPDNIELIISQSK
# Sequence of LAP2, Q96RT1 (Q96RT1 other isoform, or with tags, fused parts or gaps): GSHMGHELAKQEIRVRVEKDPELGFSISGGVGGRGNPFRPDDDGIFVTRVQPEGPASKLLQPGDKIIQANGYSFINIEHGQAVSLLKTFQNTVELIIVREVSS
# Sequence of MAGI2_4, Q86UL8 (Q86UL8 772-865): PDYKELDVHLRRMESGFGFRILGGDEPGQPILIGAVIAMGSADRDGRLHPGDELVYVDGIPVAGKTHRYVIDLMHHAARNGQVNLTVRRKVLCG
binder,measurement,setting,value
"IQREDQETAV [DGKZ, Q13574]",pKd,"NOS1, P29475; [1]",4.34
same,pKd,"MAGI2_6, Q86UL8; [1]",4.63
same,pKd,"SNTB1, Q13884; [1]",5.29
same,pKd,"FRMPD2_2, Q68DX3; [1]",4.93
same,pKd,"MPDZ_5, O75970; [1]",below the threshold
same,pKd,"LIN7C, Q9NUP9; [1]",4.49
same,pKd,"CASK, O14936; [1]",below the threshold
same,pKd,"GRIP1_7, Q9Y3R0; [1]",3.74
same,pKd,"GORASP1, Q9BQQ3; [1]",below the threshold
same,pKd,"APBA2_1, Q99767; [1]",below the threshold
same,pKd,"SHANK1, Q9Y566; [1]",4.3
same,pKd,"FRMPD2_3, Q68DX3; [1]",3.71
same,pKd,"FRMPD2_1, Q68DX3; [1]",below the threshold
same,pKd,"FRMPD1, Q5SYB0; [1]",below the threshold
same,pKd,"PDZD7_3, Q9H5P4; [1]",4.32
same,pKd,"GOPC, Q9HD26; [1]",3.86
same,pKd,"DLG4_3, P78352; [1]",3.84
same,pKd,"DLG1_3, Q12959; [1]",4.12
same,pKd,"MAGI2_4, Q86UL8; [1]",below the threshold
same,pKd,"DVL3, Q92997; [1]",below the threshold
same,pKd,"LAP2, Q96RT1; [1]",4.54
same,pKd,"Inadl_5, Q8NI35; [1]",below the threshold
same,pKd,"SCRIB_2, Q14160; [1]",4.86
same,pKd,"APBA1_2, Q02410; [1]",4.2
same,pKd,"LNX1_3, Q8TBB1; [1]",below the threshold
same,pKd,"DLG3_3, Q92796; [1]",4.42
same,pKd,"Inadl_1, Q8NI35; [1]",below the threshold
"SVVSERISSV [HTR2C, P28335]",pKd,"NOS1, P29475; [2]",3.58
same,pKd,"MAGI2_6, Q86UL8; [2]",4.64
same,pKd,"SNTB1, Q13884; [2]",4.89
same,pKd,"FRMPD2_2, Q68DX3; [2]",4.25
same,pKd,"MPDZ_5, O75970; [2]",below the threshold
same,pKd,"LIN7C, Q9NUP9; [2]",below the threshold
same,pKd,"CASK, O14936; [2]",below the threshold
same,pKd,"GRIP1_7, Q9Y3R0; [2]",below the threshold
same,pKd,"GORASP1, Q9BQQ3; [2]",below the threshold
same,pKd,"APBA2_1, Q99767; [2]",below the threshold
same,pKd,"SHANK1, Q9Y566; [2]",below the threshold
same,pKd,"FRMPD2_3, Q68DX3; [2]",below the threshold
same,pKd,"FRMPD2_1, Q68DX3; [2]",below the threshold
same,pKd,"FRMPD1, Q5SYB0; [2]",below the threshold
same,pKd,"PDZD7_3, Q9H5P4; [2]",4.26
same,pKd,"GOPC, Q9HD26; [2]",below the threshold
same,pKd,"DLG4_3, P78352; [2]",below the threshold
same,pKd,"DLG1_3, Q12959; [2]",below the threshold
same,pKd,"MAGI2_4, Q86UL8; [2]",below the threshold
same,pKd,"DVL3, Q92997; [2]",below the threshold
same,pKd,"LAP2, Q96RT1; [2]",below the threshold
same,pKd,"Inadl_5, Q8NI35; [2]",below the threshold
same,pKd,"SCRIB_2, Q14160; [2]",below the threshold
same,pKd,"APBA1_2, Q02410; [2]",3.87
same,pKd,"LNX1_3, Q8TBB1; [2]",below the threshold
same,pKd,"DLG3_3, Q92796; [2]",below the threshold
same,pKd,"Inadl_1, Q8NI35; [2]",below the threshold
"MERLRVETDV [ARHGEF16, Q5VV41]",pKd,"NOS1, P29475; [1]",below the threshold
same,pKd,"MAGI2_6, Q86UL8; [1]",4.55
same,pKd,"SNTB1, Q13884; [1]",4.84
same,pKd,"FRMPD2_2, Q68DX3; [1]",3.74
same,pKd,"MPDZ_5, O75970; [1]",3.6
same,pKd,"LIN7C, Q9NUP9; [1]",below the threshold
same,pKd,"CASK, O14936; [1]",below the threshold
same,pKd,"GRIP1_7, Q9Y3R0; [1]",below the threshold
same,pKd,"GORASP1, Q9BQQ3; [1]",below the threshold
same,pKd,"APBA2_1, Q99767; [1]",below the threshold
same,pKd,"SHANK1, Q9Y566; [1]",below the threshold
same,pKd,"FRMPD2_3, Q68DX3; [1]",below the threshold
same,pKd,"FRMPD2_1, Q68DX3; [1]",3.79
same,pKd,"FRMPD1, Q5SYB0; [1]",below the threshold
same,pKd,"PDZD7_3, Q9H5P4; [1]",4.08
same,pKd,"GOPC, Q9HD26; [1]",3.84
same,pKd,"DLG4_3, P78352; [1]",below the threshold
same,pKd,"DLG1_3, Q12959; [1]",3.86
same,pKd,"MAGI2_4, Q86UL8; [1]",3.99
same,pKd,"DVL3, Q92997; [1]",3.65
same,pKd,"LAP2, Q96RT1; [1]",4.39
same,pKd,"Inadl_5, Q8NI35; [1]",below the threshold
same,pKd,"SCRIB_2, Q14160; [1]",5.01
same,pKd,"APBA1_2, Q02410; [1]",3.86
same,pKd,"LNX1_3, Q8TBB1; [1]",below the threshold
same,pKd,"DLG3_3, Q92796; [1]",3.88
same,pKd,"Inadl_1, Q8NI35; [1]",below the threshold
"KTSAHHATFV [RGS12, O14924]",pKd,"NOS1, P29475; [3]",3.66
same,pKd,"MAGI2_6, Q86UL8; [3]",4.02
same,pKd,"SNTB1, Q13884; [3]",3.47
same,pKd,"FRMPD2_2, Q68DX3; [3]",4.72
same,pKd,"MPDZ_5, O75970; [3]",3.58
same,pKd,"LIN7C, Q9NUP9; [3]",below the threshold
same,pKd,"CASK, O14936; [3]",below the threshold
same,pKd,"GRIP1_7, Q9Y3R0; [3]",below the threshold
same,pKd,"GORASP1, Q9BQQ3; [3]",3.86
same,pKd,"APBA2_1, Q99767; [3]",below the threshold
same,pKd,"SHANK1, Q9Y566; [3]",below the threshold
same,pKd,"FRMPD2_3, Q68DX3; [3]",below the threshold
same,pKd,"FRMPD2_1, Q68DX3; [3]",below the threshold
same,pKd,"FRMPD1, Q5SYB0; [3]",below the threshold
same,pKd,"PDZD7_3, Q9H5P4; [3]",4.31
same,pKd,"GOPC, Q9HD26; [3]",3.53
same,pKd,"DLG4_3, P78352; [3]",below the threshold
same,pKd,"DLG1_3, Q12959; [3]",below the threshold
same,pKd,"MAGI2_4, Q86UL8; [3]",4.13
same,pKd,"DVL3, Q92997; [3]",3.56
same,pKd,"LAP2, Q96RT1; [3]",4.34
same,pKd,"Inadl_5, Q8NI35; [3]",3.86
same,pKd,"SCRIB_2, Q14160; [3]",3.47
same,pKd,"APBA1_2, Q02410; [3]",4.87
same,pKd,"LNX1_3, Q8TBB1; [3]",below the threshold
same,pKd,"DLG3_3, Q92796; [3]",below the threshold
same,pKd,"Inadl_1, Q8NI35; [3]",below the threshold
